The values that follow come from patent publication US20210054355A1 (NEW YORK UNIVERSITY, published 2021).

The assay deals with T1, FGFR1c^ecto/ΔSLBS′ (FGFR1c^ecto carrying V221D) (human, UniProt P11362 142-365).
T1 construct: also called FGFR1c^ΔSLBS′
T1 sequence: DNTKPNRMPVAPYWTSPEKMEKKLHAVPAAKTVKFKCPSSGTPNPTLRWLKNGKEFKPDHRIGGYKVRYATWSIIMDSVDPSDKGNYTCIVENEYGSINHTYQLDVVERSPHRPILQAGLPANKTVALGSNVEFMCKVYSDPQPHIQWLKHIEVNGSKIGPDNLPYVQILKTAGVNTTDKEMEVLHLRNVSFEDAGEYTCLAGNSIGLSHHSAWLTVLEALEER
Kind of assay: SEC-MALS, 1:1:1 ternary complex with FGF23 and αKlotho^ecto. On the procedure: A Superdex 200 10/300 GL column (GE Healthcare, USA) was placed in-line between the HPLC pump (Waters 1525) and the HPLC UV (Waters 2998 Photodiode Array), laser light scattering, and refractive index detectors. Light scattering and refractive index detectors were calibrated following the manufacturer's guidelines. The refractive index increment (dn/dc) in which n is the refractive index and c is the concentration of the mixture of DDM and CHS in 20 mM Tris-HCl pH 8.0 buffer containing 300 mM NaCl, was determined offline using an Optilab T-rEX refractive index detector. Monomeric bovine serum albumin (#23210, Thermo Scientific, USA) was used as part of routine data quality control.
60 ml or more of 25 mM HEPES pH 7.5 buffer containing 150 mM NaCl were passed through the system at a flow rate of 0.5 mL/min to equilibrate the Superdex 200 10/300 GL column and establish stable baselines for light scattering and refractive index detectors. Purified αKlotho^ecto, FGER1c^ecto (wild type or mutant), and FGF23 (wild type or mutant) proteins were mixed at a molar ratio of 1:1:1 and concentrated to 12.5 μM. 50 μl of protein samples with a molar equivalent of a heparin hexasaccharide (#H006, Iduron, Manchester, U.K.) were injected onto the gel filtration column, and the column eluent was continuously monitored for 280 nm absorbance, laser light scattering, and refractive index. In a separate set of experiments, 50 μl of 1:1:1 FGF23-FGFR1c^ecto-αKlotho^ecto ternary complex at 12.5 μM concentration was mixed with heparin hexasaccharide at molar ratios of 1:0.25, 1:0.5, 1:1, or 1:2, and the mixtures were injected onto the gel filtration column. 50 μl of ternary complex without added heparin hexasaccharide were run as a control. In yet another set of experiments, αKlotho^ecto (wild type or mutant) and FGER1c^ecto were mixed at a molar ratio of 1:1, and 50 μl of concentrated protein mixtures were injected onto the gel filtration column. 50 μl of concentrated αKlotho^ecto (wild type or mutant) alone were run as a control in these experiments. […]
In general terms: SEC sorts molecules by how far they enter the pores of the column.

B1: FGF23^WT (human FGF23 Y25 to S205 with R176Q/R179Q, protease-resistant minimal protein) (ligand)
chain: YPNASPLLGSSWGGLIHLYTATARNSYHLQIHKNGHVDGAPHQTIYSALMIRSEDAGFVVITGVMSRRYLCMDFRGNIFGSHYFDPENCRFQHQTLENGYDVYHSPQYHFLVSLGRAKRAFLPGMNPPPYSQFLSRRNEIPLIHFNTPIPRQHTQSAEDDSERDPLNVLKPRARMTPAPAS
notes: also called wild-type FGF23; minimal FGF23
As for B1, the binding result is listed as “binds”.
